Test [1] concerns the target T1, CRM 197 (Cross-reactive material 197) (Corynebacterium diphtheriae C7 (β197) …, UniProt P00588 33-567).
T1 construct: mature; Purified to more than 95% purity from the fermentation supernatant
The test can be described thus: BLI (Octet Red), CRM197 in two-fold dilutions of 50 to 3.13 nM. Background: In BLI a coated tip is dipped into the sample, and binding shifts an interference pattern.

The target of a further test is T2, CRM 197 의 A 단편(21kDa) (Corynebacterium diphtheriae C7 (β197) …, UniProt P00588 33-225).
T2 construct: domain: A 단편(21kDa); Band on a reducing SDS-PAGE / western blot after trypsin digestion
The test can be described thus: western blot of trypsin/DTT-cleaved CRM197. Background: In western blotting, separated proteins are transferred to a membrane and probed.

As a reminder, the Kd is the free concentration of one partner at which half of the binding sites on the other are occupied at equilibrium, for simple one-to-one binding. High values mean weaker binding, low ones tighter binding.

B1: 단일클론항체 3F9 (인간 IgG로 전환) (antibody, V domains shown)
VH: EVQLVESGGGLVQPGGSLRLSCAASGFTFSDYAMSWVRQAPGKGLEWVSAISSSSGNKYYADSVKGRFTISRDNSKNTLYLQMNSLRAEDTAVYYCAKLGVRETLSWYFDLWGQGTLVTVSS
VL: DIQMTQSPSSLSASVGDRVTITCRASQSISNYLNWYQQKPGKAPKLLIYAASRLQSGVPSRFSGSGSGTDFTLTISSLQPEDFATYYCQQSYSFPWTFGQGTKVEIK
notes: Human IgG made from a Fab of a human synthetic Fab library; kappa light chain is only implied by the anti-human kappa ELISA
B1 had a Kd in test [1] of 4.45 nM. Moreover, the binding result with CRM 197 의 A 단편(21kDa) is reported as “no binding”.

Source of the values: KR20200067522A (dated 2020).
